# In patent US20210130474A1 (DRAGONFLY THERAPEUTICS, published 2021):
# Assays:
# [1] = molecular target: T1, CAIX expressed on human renal cell carcinoma line A498 (human, UniProt Q16790 38-459); experiment: cell-based or functional assay
# [2] = molecular target: T1, CAIX expressed on human renal cell …; experiment: flow cytometry on A498 cells, MFI fold over background
# From the text: Human renal cell carcinoma line A498 expressing CAIX was used to assay the binding of TriNKETs to the tumor associated antigen CAIX.
binding result [2],Binder,"specific lysis of A498 target cells by rested KHYG-1 cells (DELFIA cytotoxicity assay), increase over co-culture without TriNKET [1] [%]"
–,"A49-TriNKET-CAIX (ADI-27749 and a CAIX-binding domain) (bispecific antibody, V domains shown) VH 1: EVQLVESGGGLVKPGGSLRLSCAASGFTFSSYSMNWVRQAPGKGLEWVSSISSSSSYIYYADSVKGRFTISRDNAKNSLYLQMNSLRAEDTAVYYCARGAPMGAAAGWFDPWGQGTLVTVSS VL 1: DIQMTQSPSSVSASVGDRVTITCRASQGISSWLAWYQQKPGKAPKLLIYAASSLQSGVPSRFSGSGSGTDFTLTISSLQPEDFATYYCQQGVSFPRTFGGGTKVEIK VH 2: QVELVESGGGLVQPGGSLRLSCAASGFTFSSYGMSWVRQAPGKGLEWVSGISSLGSTTYYADSVKGRFTISRDNSKNTLYLQMNSLRAEDTAVYYCARTGSPGTFMHGDHWGQGTLVTVSS VL 2: DIQMTQSPSSLSASVGDRVTITCRASQDINNYLSWYQQKPGKAPKLLIYGASNLQSGVPSRFSGSGSGTDFTLTISSLQPEDFAVYYCQQYYGRPTTFGQGTKVEIK",~20
–,"A44-TriNKET-CAIX (ADI-27744 and a CAIX-binding domain) (bispecific antibody, V domains shown) VH 1: not shown VL 1: DIQMTQSPSSVSASVGDRVTITCRASQGIDSWLAWYQQKPGKAPKLLIYAASSLQSGVPSRFSGSGSGTDFTLTISSLQPEDFATYYCQQGVSYPRTFGGGTKVEIK VH 2: QVELVESGGGLVQPGGSLRLSCAASGFTFSSYGMSWVRQAPGKGLEWVSGISSLGSTTYYADSVKGRFTISRDNSKNTLYLQMNSLRAEDTAVYYCARTGSPGTFMHGDHWGQGTLVTVSS VL 2: DIQMTQSPSSLSASVGDRVTITCRASQDINNYLSWYQQKPGKAPKLLIYGASNLQSGVPSRFSGSGSGTDFTLTISSLQPEDFAVYYCQQYYGRPTTFGQGTKVEIK",~20
–,"E79-TriNKET-CAIX (ADI-29379 and a CAIX-binding domain) (bispecific antibody, V domains shown) VH 1: QVQLVQSGAEVKKPGASVKVSCKASGYTFTSYYMHWVRQAPGQGLEWMGIINPSGGSTSYAQKFQGRVTMTRDTSTSTVYMELSSLRSEDTAVYYCARGAPNYGDTTHDYYYMDVWGKGTTVTVSS VL 1: EIVMTQSPATLSVSPGERATLSCRASQSVSSNLAWYQQKPGQAPRLLIYGASTRATGIPARFSGSGSGTEFTLTISSLQSEDFAVYYCQQYDDWPFTFGGGTKVEIK VH 2: QVELVESGGGLVQPGGSLRLSCAASGFTFSSYGMSWVRQAPGKGLEWVSGISSLGSTTYYADSVKGRFTISRDNSKNTLYLQMNSLRAEDTAVYYCARTGSPGTFMHGDHWGQGTLVTVSS VL 2: DIQMTQSPSSLSASVGDRVTITCRASQDINNYLSWYQQKPGKAPKLLIYGASNLQSGVPSRFSGSGSGTDFTLTISSLQPEDFAVYYCQQYYGRPTTFGQGTKVEIK",~20
binds,"F47-TriNKET-CAIX (ADI-29447 and a CAIX-binding domain) (bispecific antibody, V domains shown) VH 1: QVQLQQWGAGLLKPSETLSLTCAVYGGSFSGYYWSWIRQPPGKGLEWIGEIDHSGSTNYNPSLKSRVTISVDTSKNQFSLKLSSVTAADTAVYYCARARGPWSFDPWGQGTLVTVSS VL 1: DIQMTQSPSTLSASVGDRVTITCRASQSISSWLAWYQQKPGKAPKLLIYKASSLESGVPSRFSGSGSGTEFTLTISSLQPDDFATYYCQQYDTFITFGGGTKVEIK VH 2: QVELVESGGGLVQPGGSLRLSCAASGFTFSSYGMSWVRQAPGKGLEWVSGISSLGSTTYYADSVKGRFTISRDNSKNTLYLQMNSLRAEDTAVYYCARTGSPGTFMHGDHWGQGTLVTVSS VL 2: DIQMTQSPSSLSASVGDRVTITCRASQDINNYLSWYQQKPGKAPKLLIYGASNLQSGVPSRFSGSGSGTDFTLTISSLQPEDFAVYYCQQYYGRPTTFGQGTKVEIK",–
